According to publication PMC2935386:

Molecular target: fluorescein-labelled zinc finger region of GATA2 (GATA2-Zf), residues 291-412 (UniProt P23769)
Assay: fluorescence polarisation; fluorescence anisotropy; 10nM fluorescein-labeled GATA2-Zf titrated with unlabeled, unliganded TR DBD-LBD or TR DBD, 1nM to 10.000nM; 10°C, 50mM NaCl, 20mM Hepes pH8.0, 3mM dithiothreitol, 5% glycerol

fluorescein-labelled zinc finger region of GATA2 (GATA2-Zf), residues 291-412, sequence (P23769 291-412): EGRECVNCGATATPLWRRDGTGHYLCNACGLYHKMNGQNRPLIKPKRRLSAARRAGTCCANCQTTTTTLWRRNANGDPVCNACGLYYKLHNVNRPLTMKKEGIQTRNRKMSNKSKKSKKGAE

Kd: 1.93 µM
Substance: human TRβ1ΔAB/EF (TR DBD), thyroid hormone receptor β1 residues 102-198, poly-histidine construct (from UniProt P10828-1 102-198) (domain or fragment)
